Experimental data reported in IntAct's records for PubMed 35512704.

B1: Mothers against decapentaplegic homolog 4 (Homo sapiens), Q13485 (parent)
chain: MDNMSITNTPTSNDACLSIVHSLMCHRQGGESETFAKRAIESLVKKLKEKKDELDSLITAITTNGAHPSKCVTIQRTLDGRLQVAGRKGFPHVIYARLWRWPDLHKNELKHVKYCQYAFDLKCDSVCVNPYHYERVVSPGIDLSGLTLQSNAPSSMMVKDEYVHDFEGQPSLSTEGHSIQTIQHPPSNRASTETYSTPALLAPSESNATSTANFPNIPVASTSQPASILGGSHSEGLLQIASGPQPGQQQNGFTGQPATYHHNSTTTWTGSRTAPYTPNLPHHQNGHLQHHPPMPPHPGHYWPVHNELAFQPPISNHPAPEYWCSIAYFEMDVQVGETFKVPSSCPIVTVDGYVDPSGGDRFCLGQLSNVHRTEAIERARLHIGKGVQLECKGEGDVWVRCLSDHAVFVQSYYLDREAGRAPGDAVHKIYPSAYIKVFDLRQCHRQMQQQAATAQAAAAAQAAAVAGNIPGPGSVGGIAPAISLSAAAGIGVDDLRRLCILRMSFVKGWGPDYPRQSIKETPCWIEIHLHRALQLLDEVLHTMPIADPQPLD

Variants of: B1
Settings: with smad3_human SMAD3, P84022

effect of a mutation on the interaction	Variant
disrupting interaction strength	R361H

Variants of: B1
Settings: with agap2_human AGAP2, Q99490

effect of a mutation on the interaction	Variant
with no effect	R361H

Variants of: B1
Settings: with ajuba_human AJUBA

effect of a mutation on the interaction	Variant
with no effect	R361H

Variants of: B1
Settings: with akt1_human AKT1, P31749
Sequence of akt1_human AKT1, P31749 (P31749 whole entry): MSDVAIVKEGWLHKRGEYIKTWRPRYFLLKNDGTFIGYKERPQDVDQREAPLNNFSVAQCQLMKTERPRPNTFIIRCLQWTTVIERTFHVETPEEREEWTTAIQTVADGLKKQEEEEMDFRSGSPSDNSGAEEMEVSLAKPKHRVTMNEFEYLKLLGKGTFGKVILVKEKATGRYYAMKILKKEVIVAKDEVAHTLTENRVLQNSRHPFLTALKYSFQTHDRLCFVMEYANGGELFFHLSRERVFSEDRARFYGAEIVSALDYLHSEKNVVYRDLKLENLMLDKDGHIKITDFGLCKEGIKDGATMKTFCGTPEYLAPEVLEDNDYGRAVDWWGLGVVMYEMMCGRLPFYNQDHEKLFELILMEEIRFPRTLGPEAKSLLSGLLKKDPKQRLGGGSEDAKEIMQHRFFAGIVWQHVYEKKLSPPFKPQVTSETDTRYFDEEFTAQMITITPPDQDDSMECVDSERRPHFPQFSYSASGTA

effect of a mutation on the interaction	Variant
with no effect	R361H

Variants of: B1
Settings: with akts1_human AKT1S1, Q96B36

effect of a mutation on the interaction	Variant
with no effect	R361H

Variants of: B1
Settings: with akt3_human AKT3, Q9Y243

effect of a mutation on the interaction	Variant
with no effect	R361H

Variants of: B1
Settings: with alk_human ALK

effect of a mutation on the interaction	Variant
with no effect	R361H

Variants of: B1
Settings: with aph1a_human APH1A

effect of a mutation on the interaction	Variant
with no effect	R361H

Variants of: B1
Settings: with arnt_human ARNT

effect of a mutation on the interaction	Variant
with no effect	R361H

Variants of: B1
Settings: with arc1a_human ARPC1A

effect of a mutation on the interaction	Variant
with no effect	R361H

Variants of: B1
Settings: with asxl1_human ASXL1, Q8IXJ9

effect of a mutation on the interaction	Variant
with no effect	R361H

Variants of: B1
Settings: with bakor_human ATG14, Q6ZNE5

effect of a mutation on the interaction	Variant
with no effect	R361H

Variants of: B1
Settings: with atpb_human ATP5F1B

effect of a mutation on the interaction	Variant
with no effect	R361H

Variants of: B1
Settings: with aurkb_human AURKB

effect of a mutation on the interaction	Variant
with no effect	R361H

Variants of: B1
Settings: with ufo_human AXL

effect of a mutation on the interaction	Variant
with no effect	R361H

Variants of: B1
Settings: with za2g_human AZGP1, P25311
Sequence of za2g_human AZGP1, P25311 (P25311 whole entry): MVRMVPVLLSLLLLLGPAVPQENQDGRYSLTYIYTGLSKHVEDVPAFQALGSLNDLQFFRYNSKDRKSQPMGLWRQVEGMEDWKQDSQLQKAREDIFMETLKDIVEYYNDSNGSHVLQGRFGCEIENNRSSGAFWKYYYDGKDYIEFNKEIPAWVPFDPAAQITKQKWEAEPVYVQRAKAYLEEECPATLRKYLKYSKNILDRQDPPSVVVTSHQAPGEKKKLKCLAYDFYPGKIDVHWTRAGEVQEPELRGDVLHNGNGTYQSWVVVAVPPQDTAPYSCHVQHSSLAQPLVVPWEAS

effect of a mutation on the interaction	Variant
with no effect	R361H

Variants of: B1
Settings: with b2mg_human B2M

effect of a mutation on the interaction	Variant
with no effect	R361H

Variants of: B1
Settings: with bap1_human BAP1, Q92560

effect of a mutation on the interaction	Variant
with no effect	R361H

Variants of: B1
Settings: with becn1_human BECN1, Q14457

effect of a mutation on the interaction	Variant
with no effect	R361H

Variants of: B1
Settings: with birc2_human BIRC2, Q13490

effect of a mutation on the interaction	Variant
with no effect	R361H

Variants of: B1
Settings: with braf_human BRAF

effect of a mutation on the interaction	Variant
with no effect	R361H

Variants of: B1
Settings: with baba2_human BABAM2, Q9NXR7
Sequence of baba2_human BABAM2, Q9NXR7 (Q9NXR7 whole entry): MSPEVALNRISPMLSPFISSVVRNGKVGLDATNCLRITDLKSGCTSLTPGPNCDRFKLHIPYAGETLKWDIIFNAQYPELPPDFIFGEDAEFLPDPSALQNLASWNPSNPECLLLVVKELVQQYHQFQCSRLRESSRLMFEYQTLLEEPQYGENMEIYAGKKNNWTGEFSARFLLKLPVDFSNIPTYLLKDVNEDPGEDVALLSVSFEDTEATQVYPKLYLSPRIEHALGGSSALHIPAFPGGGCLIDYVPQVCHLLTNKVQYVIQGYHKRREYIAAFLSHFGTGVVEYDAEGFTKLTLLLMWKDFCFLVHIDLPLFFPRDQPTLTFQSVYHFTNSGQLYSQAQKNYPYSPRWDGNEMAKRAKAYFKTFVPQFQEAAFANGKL

effect of a mutation on the interaction	Variant
with no effect	R361H

Variants of: B1
Settings: with cbl_human CBL

effect of a mutation on the interaction	Variant
with no effect	R361H

Variants of: B1
Settings: with cblb_human CBLB

effect of a mutation on the interaction	Variant
with no effect	R361H

Variants of: B1
Settings: with ccnd2_human CCND2, P30279

effect of a mutation on the interaction	Variant
with no effect	R361H

Variants of: B1
Settings: with ccnd3_human CCND3, P30281

effect of a mutation on the interaction	Variant
with no effect	R361H

Variants of: B1
Settings: with cd44_human CD44, P16070
Sequence of cd44_human CD44, P16070 (P16070 whole entry): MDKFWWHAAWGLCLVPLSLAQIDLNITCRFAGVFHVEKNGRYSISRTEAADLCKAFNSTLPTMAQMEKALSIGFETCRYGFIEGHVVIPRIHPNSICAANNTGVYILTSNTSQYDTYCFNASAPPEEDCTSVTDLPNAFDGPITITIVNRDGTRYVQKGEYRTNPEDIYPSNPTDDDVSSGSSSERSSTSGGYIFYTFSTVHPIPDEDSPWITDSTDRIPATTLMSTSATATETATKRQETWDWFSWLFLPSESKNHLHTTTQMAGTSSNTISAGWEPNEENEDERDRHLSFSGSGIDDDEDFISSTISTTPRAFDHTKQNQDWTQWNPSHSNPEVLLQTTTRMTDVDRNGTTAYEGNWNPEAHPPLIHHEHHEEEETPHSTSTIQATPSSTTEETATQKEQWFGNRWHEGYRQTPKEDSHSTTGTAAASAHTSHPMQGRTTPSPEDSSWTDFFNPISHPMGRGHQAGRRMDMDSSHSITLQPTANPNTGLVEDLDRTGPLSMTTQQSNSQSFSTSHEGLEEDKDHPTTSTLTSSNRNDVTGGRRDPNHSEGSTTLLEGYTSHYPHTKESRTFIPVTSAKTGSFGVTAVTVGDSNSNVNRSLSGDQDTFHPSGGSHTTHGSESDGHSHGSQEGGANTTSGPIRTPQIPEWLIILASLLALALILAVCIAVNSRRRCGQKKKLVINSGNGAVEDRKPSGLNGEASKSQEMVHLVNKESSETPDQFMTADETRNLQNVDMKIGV

effect of a mutation on the interaction	Variant
with no effect	R361H

Variants of: B1
Settings: with cd79b_human CD79B

effect of a mutation on the interaction	Variant
with no effect	R361H

Variants of: B1
Settings: with cdn2b_human CDKN2B

effect of a mutation on the interaction	Variant
with no effect	R361H

Variants of: B1
Settings: with cdn2c_human CDKN2C

effect of a mutation on the interaction	Variant
with no effect	R361H

Variants of: B1
Settings: with cebpa_human CEBPA

effect of a mutation on the interaction	Variant
with no effect	R361H

Variants of: B1
Settings: with chd1l_human CHD1L

effect of a mutation on the interaction	Variant
with no effect	R361H

Variants of: B1
Settings: with ch3l1_human CHI3L1, P36222

effect of a mutation on the interaction	Variant
with no effect	R361H

Variants of: B1
Settings: with ctna1_human CTNNA1, P35221

effect of a mutation on the interaction	Variant
with no effect	R361H

Variants of: B1
Settings: with ctnb1_human CTNNB1, P35222
Sequence of ctnb1_human CTNNB1, P35222 (P35222 whole entry): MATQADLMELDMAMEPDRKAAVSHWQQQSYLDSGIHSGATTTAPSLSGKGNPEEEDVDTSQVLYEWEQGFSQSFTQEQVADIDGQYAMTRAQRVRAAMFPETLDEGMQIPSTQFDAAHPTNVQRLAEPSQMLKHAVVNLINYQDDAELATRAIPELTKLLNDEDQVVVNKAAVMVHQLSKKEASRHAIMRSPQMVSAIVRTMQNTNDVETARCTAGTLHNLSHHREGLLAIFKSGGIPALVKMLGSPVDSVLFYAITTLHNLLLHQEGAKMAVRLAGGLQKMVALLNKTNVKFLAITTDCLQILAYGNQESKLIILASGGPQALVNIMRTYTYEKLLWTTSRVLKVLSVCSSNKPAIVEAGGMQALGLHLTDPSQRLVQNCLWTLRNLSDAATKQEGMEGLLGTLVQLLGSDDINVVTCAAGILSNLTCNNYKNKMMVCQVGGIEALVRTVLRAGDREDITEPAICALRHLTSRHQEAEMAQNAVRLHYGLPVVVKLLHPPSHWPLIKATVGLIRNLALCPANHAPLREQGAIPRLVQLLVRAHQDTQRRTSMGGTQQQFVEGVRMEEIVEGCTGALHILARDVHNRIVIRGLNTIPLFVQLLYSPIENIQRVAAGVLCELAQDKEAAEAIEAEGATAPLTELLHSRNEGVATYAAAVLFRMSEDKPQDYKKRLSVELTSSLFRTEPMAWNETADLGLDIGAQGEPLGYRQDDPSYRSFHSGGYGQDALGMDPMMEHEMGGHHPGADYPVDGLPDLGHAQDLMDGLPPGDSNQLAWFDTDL

effect of a mutation on the interaction	Variant
with no effect	R361H

Variants of: B1
Settings: with cul3_human CUL3, Q13618

effect of a mutation on the interaction	Variant
with no effect	R361H

Variants of: B1
Settings: with cul4b_human CUL4B

effect of a mutation on the interaction	Variant
with no effect	R361H

Variants of: B1
Settings: with dicer_human DICER1, Q9UPY3

effect of a mutation on the interaction	Variant
with no effect	R361H

Variants of: B1
Settings: with dll3_human DLL3, Q9NYJ7

effect of a mutation on the interaction	Variant
with no effect	R361H

Variants of: B1
Settings: with duox2_human DUOX2, Q9NRD8

effect of a mutation on the interaction	Variant
with no effect	R361H

Variants of: B1
Settings: with e2f3_human E2F3, O00716

effect of a mutation on the interaction	Variant
with no effect	R361H

Variants of: B1
Settings: with e2f4_human E2F4, Q16254

effect of a mutation on the interaction	Variant
with no effect	R361H

Variants of: B1
Settings: with e2f5_human E2F5, Q15329

effect of a mutation on the interaction	Variant
with no effect	R361H

Variants of: B1
Settings: with if4e_human EIF4E

effect of a mutation on the interaction	Variant
with no effect	R361H

Variants of: B1
Settings: with epha2_human EPHA2, P29317

effect of a mutation on the interaction	Variant
with no effect	R361H

Variants of: B1
Settings: with epha7_human EPHA7, Q15375

effect of a mutation on the interaction	Variant
with no effect	R361H

Variants of: B1
Settings: with ephb1_human EPHB1, P54762

effect of a mutation on the interaction	Variant
with no effect	R361H

Variants of: B1
Settings: with erbb3_human ERBB3, P21860

effect of a mutation on the interaction	Variant
with no effect	R361H

Variants of: B1
Settings: with erbb4_human ERBB4, Q15303

effect of a mutation on the interaction	Variant
with no effect	R361H

Variants of: B1
Settings: with esr1_human ESR1, P03372

effect of a mutation on the interaction	Variant
with no effect	R361H

Variants of: B1
Settings: with etv1_human ETV1, P50549

effect of a mutation on the interaction	Variant
with no effect	R361H

Variants of: B1
Settings: with fadd_human FADD

effect of a mutation on the interaction	Variant
with no effect	R361H

Variants of: B1
Settings: with facd2_human FANCD2, Q9BXW9

effect of a mutation on the interaction	Variant
with no effect	R361H

Variants of: B1
Settings: with fgf19_human FGF19, O95750
Sequence of fgf19_human FGF19, O95750 (O95750 whole entry): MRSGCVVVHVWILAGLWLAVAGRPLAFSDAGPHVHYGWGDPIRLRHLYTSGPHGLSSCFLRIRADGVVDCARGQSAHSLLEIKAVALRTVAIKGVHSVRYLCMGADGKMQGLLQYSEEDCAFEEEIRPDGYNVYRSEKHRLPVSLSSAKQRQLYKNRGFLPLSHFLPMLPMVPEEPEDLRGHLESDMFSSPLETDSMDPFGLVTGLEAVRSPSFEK

effect of a mutation on the interaction	Variant
with no effect	R361H

Variants of: B1
Settings: with fgfr3_human FGFR3, P22607

effect of a mutation on the interaction	Variant
with no effect	R361H

Variants of: B1
Settings: with fgfr4_human FGFR4, P22455

effect of a mutation on the interaction	Variant
with no effect	R361H

Variants of: B1
Settings: with foxo1_human FOXO1, Q12778

effect of a mutation on the interaction	Variant
with no effect	R361H

Variants of: B1
Settings: with gbra6_human GABRA6, Q16445

effect of a mutation on the interaction	Variant
with no effect	R361H

Variants of: B1
Settings: with gata2_human GATA2, P23769

effect of a mutation on the interaction	Variant
with no effect	R361H

Variants of: B1
Settings: with gata3_human GATA3, P23771

effect of a mutation on the interaction	Variant
with no effect	R361H

Variants of: B1
Settings: with gna11_human GNA11, P29992

effect of a mutation on the interaction	Variant
with no effect	R361H

Variants of: B1
Settings: with gnaq_human GNAQ

effect of a mutation on the interaction	Variant
with no effect	R361H

Variants of: B1
Settings: with grm1_human GRM1, Q13255

effect of a mutation on the interaction	Variant
with no effect	R361H

Variants of: B1
Settings: with grm3_human GRM3, Q14832

effect of a mutation on the interaction	Variant
with no effect	R361H

Variants of: B1
Settings: with gsk3a_human GSK3A

effect of a mutation on the interaction	Variant
with no effect	R361H

Variants of: B1
Settings: with hdac1_human HDAC1, Q13547

effect of a mutation on the interaction	Variant
with no effect	R361H

Variants of: B1
Settings: with hdac3_human HDAC3, O15379
Sequence of hdac3_human HDAC3, O15379 (O15379 whole entry): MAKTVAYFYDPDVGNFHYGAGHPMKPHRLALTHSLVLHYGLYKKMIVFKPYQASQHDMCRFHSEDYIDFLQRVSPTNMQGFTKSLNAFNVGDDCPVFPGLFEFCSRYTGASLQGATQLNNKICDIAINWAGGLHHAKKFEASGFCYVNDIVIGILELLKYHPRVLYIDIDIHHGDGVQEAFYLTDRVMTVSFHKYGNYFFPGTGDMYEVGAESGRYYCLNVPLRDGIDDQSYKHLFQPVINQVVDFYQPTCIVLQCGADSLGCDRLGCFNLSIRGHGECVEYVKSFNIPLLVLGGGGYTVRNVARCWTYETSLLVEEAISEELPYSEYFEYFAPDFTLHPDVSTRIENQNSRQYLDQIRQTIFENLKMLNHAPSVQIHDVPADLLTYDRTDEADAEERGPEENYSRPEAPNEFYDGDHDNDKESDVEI

effect of a mutation on the interaction	Variant
with no effect	R361H

Variants of: B1
Settings: with hgf_human HGF

effect of a mutation on the interaction	Variant
with no effect	R361H

Variants of: B1
Settings: with h31_human H3C1, P68431

effect of a mutation on the interaction	Variant
with no effect	R361H

Variants of: B1
Settings: with hlab_human HLA-B

effect of a mutation on the interaction	Variant
with no effect	R361H

Variants of: B1
Settings: with hnf1a_human HNF1A

effect of a mutation on the interaction	Variant
with no effect	R361H

Variants of: B1
Settings: with rash_human HRAS

effect of a mutation on the interaction	Variant
with no effect	R361H

Variants of: B1
Settings: with hs90a_human HSP90AA1, P07900

effect of a mutation on the interaction	Variant
with no effect	R361H

Variants of: B1
Settings: with hs90b_human HSP90AB1, P08238

effect of a mutation on the interaction	Variant
with no effect	R361H

Variants of: B1
Settings: with il7ra_human IL7R

effect of a mutation on the interaction	Variant
with no effect	R361H

Variants of: B1
Settings: with irf6_human IRF6, O14896

effect of a mutation on the interaction	Variant
with no effect	R361H

Variants of: B1
Settings: with irs1_human IRS1, P35568

effect of a mutation on the interaction	Variant
with no effect	R361H

Variants of: B1
Settings: with jak1_human JAK1, P23458
Sequence of jak1_human JAK1, P23458 (P23458 whole entry): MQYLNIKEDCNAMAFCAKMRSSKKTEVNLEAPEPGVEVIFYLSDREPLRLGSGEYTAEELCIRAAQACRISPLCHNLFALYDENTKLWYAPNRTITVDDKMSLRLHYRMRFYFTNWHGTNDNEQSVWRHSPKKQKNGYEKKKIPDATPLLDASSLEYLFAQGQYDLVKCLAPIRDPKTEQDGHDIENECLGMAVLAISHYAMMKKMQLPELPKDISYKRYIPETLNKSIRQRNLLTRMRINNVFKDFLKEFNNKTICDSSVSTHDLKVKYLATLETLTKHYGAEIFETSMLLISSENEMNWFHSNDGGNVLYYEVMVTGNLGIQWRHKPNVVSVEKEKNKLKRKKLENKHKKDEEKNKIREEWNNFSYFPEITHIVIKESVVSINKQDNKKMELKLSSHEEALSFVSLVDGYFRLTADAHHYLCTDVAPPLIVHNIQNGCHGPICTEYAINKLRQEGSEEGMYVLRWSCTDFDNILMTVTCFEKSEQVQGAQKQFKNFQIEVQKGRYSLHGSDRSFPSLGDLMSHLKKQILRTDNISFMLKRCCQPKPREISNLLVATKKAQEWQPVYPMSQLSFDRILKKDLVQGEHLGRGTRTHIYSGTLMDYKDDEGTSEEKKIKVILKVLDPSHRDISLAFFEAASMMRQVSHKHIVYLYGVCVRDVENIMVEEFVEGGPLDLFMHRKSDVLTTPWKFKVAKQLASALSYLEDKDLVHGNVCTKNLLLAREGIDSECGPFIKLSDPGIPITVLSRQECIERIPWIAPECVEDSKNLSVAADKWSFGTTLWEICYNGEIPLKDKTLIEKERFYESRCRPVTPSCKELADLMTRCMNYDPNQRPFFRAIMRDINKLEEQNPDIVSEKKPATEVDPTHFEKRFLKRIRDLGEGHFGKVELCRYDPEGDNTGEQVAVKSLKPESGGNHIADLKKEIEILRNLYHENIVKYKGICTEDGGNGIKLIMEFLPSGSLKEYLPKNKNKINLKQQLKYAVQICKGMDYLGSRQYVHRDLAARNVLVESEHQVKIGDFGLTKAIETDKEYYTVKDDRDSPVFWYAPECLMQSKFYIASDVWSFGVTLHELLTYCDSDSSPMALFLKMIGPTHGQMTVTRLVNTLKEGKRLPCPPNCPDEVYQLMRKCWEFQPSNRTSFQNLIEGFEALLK

effect of a mutation on the interaction	Variant
with no effect	R361H

Variants of: B1
Settings: with kdm5c_human KDM5C

effect of a mutation on the interaction	Variant
with no effect	R361H

Variants of: B1
Settings: with vgfr2_human KDR

effect of a mutation on the interaction	Variant
with no effect	R361H

Variants of: B1
Settings: with keap1_human KEAP1, Q14145

effect of a mutation on the interaction	Variant
with no effect	R361H

Variants of: B1
Settings: with klf4_human KLF4, O43474
Sequence of klf4_human KLF4, O43474 (O43474 whole entry): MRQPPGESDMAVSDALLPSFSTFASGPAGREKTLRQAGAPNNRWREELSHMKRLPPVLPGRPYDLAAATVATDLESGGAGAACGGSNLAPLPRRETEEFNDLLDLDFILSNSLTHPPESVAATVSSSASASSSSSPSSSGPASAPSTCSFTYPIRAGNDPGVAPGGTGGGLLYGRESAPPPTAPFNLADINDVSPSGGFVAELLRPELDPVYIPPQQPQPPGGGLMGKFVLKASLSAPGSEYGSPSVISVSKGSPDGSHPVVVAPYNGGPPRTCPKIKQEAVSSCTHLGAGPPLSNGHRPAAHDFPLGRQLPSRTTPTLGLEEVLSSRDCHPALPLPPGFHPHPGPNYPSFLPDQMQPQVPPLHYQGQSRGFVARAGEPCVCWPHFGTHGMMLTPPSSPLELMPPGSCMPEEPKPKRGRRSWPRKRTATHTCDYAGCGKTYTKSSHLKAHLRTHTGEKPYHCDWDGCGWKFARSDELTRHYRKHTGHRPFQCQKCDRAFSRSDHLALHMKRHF

effect of a mutation on the interaction	Variant
with no effect	R361H
